Laboratory results as given in paper PMC4721966.
One block for each substance: values may come before it.

Tests used:
[1] = biological target: Aureochrome 1a from Phaeodactylum tricornutum, full-length protein (PtAu1a_(full)) (Phaeodactylum tricornutum); assay: SEC-MALS; light: pre-incubated at 20°C under continuous blue light (400 µW cm^-2 at 450 nm) for 20 min; 100 µl of 150 µM protein on Superdex 200 10/300 GL in buffer C, RT, column continuously illuminated; monomer-dimer
[2] = biological target: Aureochrome 1a from Phaeodactylum tricornutum, full-length protein (PtAu1a_(full)) (Phaeodactylum tricornutum); assay: SEC-MALS; dark: pre-incubated at 20°C in the dark for 20 min; 100 µl of 150 µM protein on Superdex 200 10/300 GL in buffer C (20 mM HEPES pH 7.5, 100 mM NaCl, 10 mM MgCl2, 5% glycerol), RT, column kept in the dark; monomer-dimer
[3] = biological target: PtAu1aLOV, LOV domain of PtAu1a containing its N- and C-terminal α-helical extensions A´α and Jα (Phaeodactylum tricornutum); assay: MST; dark; Monolith NT.115; 20 nM DY-647-labelled PtAu1aLOV with a 1:2 dilution series of unlabelled PtAu1aLOV; 20 mM HEPES pH 7.5, 100 mM NaCl, 10% glycerol; dimer to monomers
[4] = biological target: PtAu1aLOV, LOV domain of PtAu1a containing its N- and C-terminal α-helical extensions A´α and Jα (Phaeodactylum tricornutum); assay: SEC-MALS; light: pre-incubated at 20°C under continuous blue light (400 µW cm^-2 at 450 nm) for 20 min; 100 µl of 150 µM protein on Superdex 200 10/300 GL in buffer C, RT, column continuously illuminated; monomer-dimer
[5] = biological target: PtAu1a_(bZIP-LOV), truncated PtAu1a variant encompassing the bZIP and LOV domain (Phaeodactylum tricornutum); assay: as above
[6] = biological target: PtAu1a_(bZIP-LOV), truncated PtAu1a variant encompassing the bZIP and LOV domain (Phaeodactylum tricornutum); assay: SEC-MALS; dark: pre-incubated at 20°C in the dark for 20 min; 100 µl of 150 µM protein on Superdex 200 10/300 GL in buffer C (20 mM HEPES pH 7.5, 100 mM NaCl, 10 mM MgCl2, 5% glycerol), RT, column kept in the dark; monomer-dimer
[7] = system: Aureochrome 1a full length (PtAu1afull) (Phaeodactylum tricornutum); assay: EMSA; details: 10 mM MgCl2, EMSA: 50 nM DNA in buffer C (20 mM HEPES pH 7.5, 100 mM NaCl, 10 mM MgCl2, 5% glycerol) plus 5% glycerol, 20 min at RT, dark or blue light (450 nm), 10% TGE …

stoichiometry N [1]: 2
stoichiometry N [2]: 2
Substance: Aureochrome 1a from Phaeodactylum tricornutum, full-length protein (PtAu1a_(full)) (natural protein)

Kd [3]: 13.6 µM
stoichiometry N [4]: 2
Substance: PtAu1aLOV, LOV domain of PtAu1a containing its N- and C-terminal α-helical extensions A´α and Jα (domain or fragment)

stoichiometry N [5]: 2
stoichiometry N [6]: 2
Substance: PtAu1a_(bZIP-LOV), truncated PtAu1a variant encompassing the bZIP and LOV domain (domain or fragment)

Substance: TGTAGCGTCTGACGTGGTTCCCAC (double strand) [24-bp dsCYC2 promoter probe]
K half ([7]; continuous blue light, EC50, Hill coefficient 1.65): 90 nM
K half ([7]; dark, EC50, Hill coefficient 1.35): 860 nM
